Consider 66 substances from patent US12084522B2, “Peptides, combination of peptides, and cell based medicaments for use in immunotherapy against urinary bladder cancer and other cancers” (Immatics Biotechnologies GmbH, priority 2016, dated 2024).

This assay deals with HLA-A*02:01 (Homo sapiens, UniProt P04439, D140Y/D185E/D98H/E176V/E277Q/G131W/G231S/I119V/I121R/I166T/I218V/L300P/L318F/N151K/N90K/P208A/P217A/Q86G/Q94H/R138H/R169H/T345S). Put plainly: MHC binding assay (UV-ligand exchange, β2m ELISA, peptide exchange yield). The settings on record: binding to HLA-A*02:01 ranged by peptide exchange yield (UV-ligand exchange, β2m ELISA). From the text:
Candidate peptides for T cell based therapies according to the present invention were further tested for their MHC binding capacity (affinity). The individual peptide-MHC complexes were produced by UV-ligand exchange, where a UV-sensitive peptide is cleaved upon UV-irradiation, and exchanged with the peptide of interest as analyzed. Only peptide candidates that can effectively bind and stabilize the peptide-receptive MHC molecules prevent dissociation of the MHC complexes. To determine the yield of the exchange reaction, an ELISA was performed based on the detection of the light chain (β2 m) of stabilized MHC complexes. The assay was performed as generally described in Rodenko et al. (Rodenko et al., 2006).
96 well MAXISorp plates (NUNC) were coated over night with 2 μg/ml streptavidin in PBS at room temperature, washed 4× and blocked forth at 37° C. in 2% BSA containing blocking buffer. Refolded HLA-A*02:01/MLA-001 monomers served as standards, covering the range of 15-500 ng/ml. Peptide-MHC monomers of the UV-exchange reaction were diluted 100 fold in blocking buffer. Samples were incubated for 1 h at 37° C., washed four times, incubated with 2 ug/ml HRP conjugated anti-β2 m for 1 h at 37° C., washed again and detected with TMB solution that is stopped with […]. Absorption was measured at 450 nm. Candidate peptides that show a high exchange yield (preferably higher than 50%, most preferred higher than 75%) are generally preferred for a generation and production of antibodies or fragments thereof, and/or T cell receptors or fragments thereof, as they show sufficient avidity to the MHC molecules and prevent dissociation of the MHC complexes.
Background: In an ELISA, binding on a coated surface is turned into a signal by an enzyme label.
Consider “1 (ILLQASVQV; listed as Homo sapiens) [compound 1]”, for which the Peptide exchange result was “++++ (>75% = ++++)”.
The same measure for “2 (GLLKAYSIRTA; listed as Homo sapiens) [compound 2]”: “+++ (>50 = +++)”.
In the case of “3 (YLDEIPPKFSM; listed as Homo sapiens) [compound 3]”, the Peptide exchange result is on record as “++++ (>75% = ++++)”.
Regarding “7 (QMFEGQILDV; listed as Homo sapiens) [compound 7]”, the Peptide exchange result is recorded as “+++ (>50 = +++)”.
The same measure for “8 (ALSFSSSAGPGLLKA; listed as Homo sapiens) [compound 8]”: “+++ (>50 = +++)”; for “11 (AMAELRVVV; listed as Homo sapiens) [compound 11]”: “++++ (>75% = ++++)”; for “12 (GVALTVTGV; listed as Homo sapiens) [compound 12]”: “++++ (>75% = ++++)”.
Turning to “13 (FLEEKEQAAL; listed as Homo sapiens) [compound 13]”, the Peptide exchange result is given as “+++ (>50 = +++)”.
In the case of “18 (SIAAYNPVV; listed as Homo sapiens) [compound 18]” it was “++++ (>75% = ++++)”; in that of “19 (SLATTLTKI; listed as Homo sapiens) [compound 19]”, “+++ (>50 = +++)”.
As for “20 (YLPDSLTQL; listed as Homo sapiens) [compound 20]”, the Peptide exchange entry was “++++ (>75% = ++++)”.
Turning to “21 (TLIEDDALNGA; listed as Homo sapiens) [compound 21]”, the Peptide exchange result is recorded as “+++ (>50 = +++)”.
As for “25 (SLDSSGFSL; listed as Homo sapiens) [compound 25]”, the Peptide exchange entry was “+++ (>50 = +++)”.
The same measure for “26 (GLALLYSGV; listed as Homo sapiens) [compound 26]”: “++++ (>75% = ++++)”; for “28 (GLIDSLMAYV; listed as Homo sapiens) [compound 28]”: “++++ (>75% = ++++)”.
For “31 (SLFDGIATGL; listed as Homo sapiens) [compound 31]”, the Peptide exchange result is reported as “++++ (>75% = ++++)”.
As to “32 (YQAPDIDVQL; listed as Homo sapiens) [compound 32]”, the Peptide exchange entry is given as “+++ (>50 = +++)”.
“33 (VLFGEITRL; listed as Homo sapiens) [compound 33]”: the Peptide exchange result is “+++ (>50 = +++)”.
Turning to “34 (ALLDEQQVNV; listed as Homo sapiens) [compound 34]”, the Peptide exchange entry is “+++ (>50 = +++)”.
In the case of “35 (KLPEPPPLA; listed as Homo sapiens) [compound 35]” it was “+++ (>50 = +++)”; in that of “36 (ALWDEFNQL; listed as Homo sapiens) [compound 36]”, “+++ (>50 = +++)”; in that of “37 (ILSAILVHL; listed as Homo sapiens) [compound 37]”, “+++ (>50 = +++)”.
The same measure for “38 (TLTSIIVAV; listed as Homo sapiens) [compound 38]”: “+++ (>50 = +++)”; for “39 (AMASHLTST; listed as Homo sapiens) [compound 39]”: “+++ (>50 = +++)”.
The same measure for “40 (VIADRVVTV; listed as Homo sapiens) [compound 40]”: “+++ (>50 = +++)”; for “42 (FLIDASQRV; listed as Homo sapiens) [compound 42]”: “+++ (>50 = +++)”; for “43 (FLIESKLLSL; listed as Homo sapiens) [compound 43]”: “++++ (>75% = ++++)”.
For “44 (GLAQDPKSLQL; listed as Homo sapiens) [compound 44]”, the Peptide exchange entry is reported as “+++ (>50 = +++)”.
The same measure for “45 (IIDSSPTAL; listed as Homo sapiens) [compound 45]”: “++ (>20% = ++)”.
For the substance “47 (VLMDDTDPL; listed as Homo sapiens) [compound 47]”, the Peptide exchange entry is on record as “+++ (>50 = +++)”.
Take “48 (VLMDDTDPLV; listed as Homo sapiens) [compound 48]”: the Peptide exchange result is reported as “+++ (>50 = +++)”.
In the case of “49 (SLIGGTNFV; listed as Homo sapiens) [compound 49]” it was “+++ (>50 = +++)”.
As to “52 (SLATLEGIQL; listed as Homo sapiens) [compound 52]”, the Peptide exchange entry is “+++ (>50 = +++)”.
“54 (ALNDEINFL; listed as Homo sapiens) [compound 54]”: the Peptide exchange result is on record as “+++ (>50 = +++)”.
The same measure for “55 (KLLETKWTL; listed as Homo sapiens) [compound 55]”: “++++ (>75% = ++++)”; for “56 (ILLRDLPTL; listed as Homo sapiens) [compound 56]”: “+++ (>50 = +++)”; for “58 (GLDSSVNVQGSVL; listed as Homo sapiens) [compound 58]”: “+++ (>50 = +++)”.
Turning to “62 (GQLDFSEFL; listed as Homo sapiens) [compound 62]”, the Peptide exchange entry is reported as “+++ (>50 = +++)”.
For “63 (LLAGLLVGV; listed as Homo sapiens) [compound 63]”, the Peptide exchange entry is “+++ (>50 = +++)”.
The same measure for “64 (GLLSQGSPL; listed as Homo sapiens) [compound 64]”: “+++ (>50 = +++)”; for “65 (IITDLLRSV; listed as Homo sapiens) [compound 65]”: “++++ (>75% = ++++)”; for “66 (SLWEENQAL; listed as Homo sapiens) [compound 66]”: “+++ (>50 = +++)”.
Take “67 (FLTPPLLSV; listed as Homo sapiens) [compound 67]”: the Peptide exchange result is given as “++++ (>75% = ++++)”.
In the case of “68 (TMIVSLAAV; listed as Homo sapiens) [compound 68]” it was “+++ (>50 = +++)”; in that of “69 (QIWDKILSV; listed as Homo sapiens) [compound 69]”, “+++ (>50 = +++)”; in that of “70 (KLAEISLGV; listed as Homo sapiens) [compound 70]”, “++ (>20% = ++)”.
For “71 (LLSEDFVSV; listed as Homo sapiens) [compound 71]”, the Peptide exchange entry was “++ (>20% = ++)”.
Consider “72 (SLFTGLRSI; listed as Homo sapiens) [compound 72]”, for which the Peptide exchange entry is on record as “+++ (>50 = +++)”.
For “73 (VLKVFLENV; listed as Homo sapiens) [compound 73]”, the Peptide exchange result is on record as “++++ (>75% = ++++)”.
The same measure for “74 (LLQEGEVYSA; listed as Homo sapiens) [compound 74]”: “+++ (>50 = +++)”; for “76 (AVVSSVNTV; listed as Homo sapiens) [compound 76]”: “+++ (>50 = +++)”.
Consider “77 (KVFGGFQVV; listed as Homo sapiens) [compound 77]”, for which the Peptide exchange entry is “++++ (>75% = ++++)”.
On to “78 (FIPDFAVAI; listed as Homo sapiens) [compound 78]”, for which the Peptide exchange result is “++++ (>75% = ++++)”.
Turning to “79 (FLDPATPRV; listed as Homo sapiens) [compound 79]”, the Peptide exchange entry is on record as “+++ (>50 = +++)”.
With “80 (ILLDTPLFLL; listed as Homo sapiens) [compound 80]”, the Peptide exchange entry is given as “+++ (>50 = +++)”.
In the case of “81 (SLDKGTLYI; listed as Homo sapiens) [compound 81]” it was “+++ (>50 = +++)”.
On to “82 (NLHNSYYSV; listed as Homo sapiens) [compound 82]”, for which the Peptide exchange result is listed as “+++ (>50 = +++)”.
The same measure for “83 (VILDKYYFL; listed as Homo sapiens) [compound 83]”: “++++ (>75% = ++++)”; for “84 (ALDPASISV; listed as Homo sapiens) [compound 84]”: “+++ (>50 = +++)”; for “85 (HLLDSKVPSV; listed as Homo sapiens) [compound 85]”: “+++ (>50 = +++)”.
The same measure for “86 (FLISLIISV; listed as Homo sapiens) [compound 86]”: “+++ (>50 = +++)”.
Regarding “87 (RLLELLQEA; listed as Homo sapiens) [compound 87]”, the Peptide exchange entry is given as “++++ (>75% = ++++)”.
Consider “88 (ALASLENHV; listed as Homo sapiens) [compound 88]”, for which the Peptide exchange entry is “+++ (>50 = +++)”.
In the case of “89 (YLFPETEFI; listed as Homo sapiens) [compound 89]” it was “+++ (>50 = +++)”; in that of “90 (GMTELYFQL; listed as Homo sapiens) [compound 90]”, “+++ (>50 = +++)”; in that of “91 (NLDAATYQV; listed as Homo sapiens) [compound 91]”, “+++ (>50 = +++)”.
